# Laboratory results from patent publication US10370436B2, “Anti-pseudomonas Psl binding molecules and uses thereof” (priority 2011, dated 2019).
# B1: WapR-004: anti-Psl antibody, VH SEQ ID NO: 11 and VL SEQ ID NO: 12 (antibody, V domains shown)
# VH: EVQLLESGPGLVKPSETLSLTCNVAGGSISPYYWTWIRQPPGKGLELIGYIHSSGYTDYNPSLKSRVTISGDTSKKQFSLHVSSVTAADTAVYFCARGDWDLLHALDIWGQGTLVTVSS
# VL: EIVLTQSPSSLSTSVGDRVTITCRASQSIRSHLNWYQQKPGKAPKLLIYGASNLQSGVPSRFSGSGSGTDFTLTISSLQPEDFATYYCQQSYSFPLTFGGGTKLEIK
# modifications: WapR-004 VH; WapR-004 & WarR-004RAD VL
# Key:
# Type in all cases: cell-based, Pseudomonas aeruginosa
# [1] = tested on: P. aeruginosa strain 9882-80 (O11); experiment: OPK assay, strain 9882-80.lux; conditions: strain 9882-80.lux (O11); FIG. 2B
# Experimental: (§1) This example describes the evaluation of prioritized human IgG1 antibodies to promote OPK of P. aeruginosa. […] OPK assays were performed as described in (DiGiandomenico, A., et al., Infect Immun 72, 7012-7021 (2004)), with modifications. Briefly, assays were performed in 96-well plates using 0.025 ml of each OPK component; P. aeruginosa strains; diluted baby rabbit serum; differentiated HL-60 cells; and monoclonal antibody. In some OPK assays, luminescent P. aeruginosa strains, which were constructed as described (Choi, K. H., et al., Nat Methods 2, 443-448 (2005)), were used. Luminescent OPK assays were performed as described above but with determination of relative luciferase units (RLUs) using a Perkin Elmer ENVISION Multilabel plate reader (Perkin Elmer).
# The ability of the WapR-004 and Cam-003 antibodies to mediate OPK activity against another clinically relevant O-antigen serotype strain, 9882-80.lux, was evaluated.
# [2] = tested on: luminescent P. aeruginosa serogroup 05 strain (PAO1.lux); experiment: Opsonophagocytosis killing (OPK) assay, PAO1.lux; conditions: human IgG1 antibodies, differentiated HL-60 cells, baby rabbit serum, FIG. 2A
# Experimental: as §1
# This example describes two series of experiments evaluating the ability of PMB-mAb conjugates to promote OPK of P. aeruginosa. In the first experiments (FIGS. 15A-B), conjugate-mediated OPK activity by human HL-60 neutrophil cell line in the presence of rabbit complement was evaluated using P. aeruginosa strains expressing bacterial luciferase as described in Example 2. R347 was used as a negative control in these experiments. […] In the second series of experiments, reduction in luminescence following 2 h incubation relative to control lacking mAb was used to determine % killing.
# [3] = tested on: P. aeruginosa PAO1.lux association with A549 cells; experiment: Cell attachment assay, PAO1.lux to A549 cells; conditions: MOI of 10, FIG. 4, FIG. 9B
# Experimental: Anti-Psl antibodies were added to a confluent monolayer of A549 cells (an adenocarcinoma human alveolar basal epithelial cell line) grown in opaque 96-well plates (Nunc Nunclon Delta). Log-phase luminescent P. aeruginosa PAO1 strain (PAO1.lux) was added at an MOI of 10. After incubation of PAO1.lux with A549 cells at 37° C. for 1 hour, the A549 cells were washed, followed by addition of LB+0.5% glucose. Bacteria were quantified following a brief incubation at 37° C. as performed in the OPK assay described in Example 2. Measurements from wells without A549 cells were used to correct for non-specific binding.
molecule,measurement,setting,value
B1,OPK activity,[1],OPK activity extends to strain 9882-80
same,OPK activity (concentration dependent killing),[2],superior OPK activity
same,inhibition of association of PAO1.lux to A549 cells,[3],most active at inhibiting P. aeruginosa cell attachment to A549 lung epithelial cells
